Test results taken from US20210388102A1 (IMMUNOGEN, published 2021).
Blank lines part the entries; values can stand above or below the binder they belong to.

Columns and labels:
[1] = target: T1, cynomolgus monkey ADAM9 (cynoADAM9) on cells (cynomolgus monkey, UniProt Q13443 206-819 (human entry)); assay: FACS, 300-19 cells expressing cynomolgus ADAM9
T1 construct: also called Cho-K/cynoADAM9 clone 2; Cho-K/cynoADAM9 clone #16
T1 chain: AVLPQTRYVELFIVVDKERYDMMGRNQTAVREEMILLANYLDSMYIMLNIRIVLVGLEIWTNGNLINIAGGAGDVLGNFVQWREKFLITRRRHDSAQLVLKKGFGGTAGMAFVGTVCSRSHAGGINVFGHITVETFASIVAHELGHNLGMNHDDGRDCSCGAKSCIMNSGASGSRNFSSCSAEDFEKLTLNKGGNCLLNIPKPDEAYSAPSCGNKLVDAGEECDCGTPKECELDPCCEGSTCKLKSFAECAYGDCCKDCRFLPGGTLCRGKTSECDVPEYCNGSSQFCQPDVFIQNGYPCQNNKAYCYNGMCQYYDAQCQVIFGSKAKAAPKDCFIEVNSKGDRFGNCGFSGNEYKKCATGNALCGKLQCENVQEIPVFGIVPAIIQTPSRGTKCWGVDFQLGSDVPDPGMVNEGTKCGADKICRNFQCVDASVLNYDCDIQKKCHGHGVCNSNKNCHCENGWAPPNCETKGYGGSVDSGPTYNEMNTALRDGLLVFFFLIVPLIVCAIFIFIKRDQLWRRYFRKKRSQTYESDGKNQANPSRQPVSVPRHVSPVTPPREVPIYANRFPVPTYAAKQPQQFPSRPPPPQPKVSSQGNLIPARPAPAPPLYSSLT
Description: (§1) To evaluate the consequence of conjugation on antigen binding, the relative binding affinity of each anti-ADAM9 immunoconjugate and its respective unconjugated antibody to ADAM9 was determined by FACS analysis on 300-19 cells ectopically-expressing either human ADAM9 or cynomolgus ADAM9. Briefly, the ADAM9-expressing 300-19 cells were incubated with dilution series of anti-ADAM9 antibodies or immunoconjugates for 30 min @ 4° C. in FACS buffer (PBS, 0.1% BSA, 0.01% NaN₃), Samples were then washed and incubated with fluorescently-labeled secondary antibody for 30 minutes at 4° C. The normalized mean of fluorescence intensity at each concentration was plotted and the EC50 of binding was calculated using a nonlinear regression analysis (GraphPad Prims 4.0).

[2] = target: T1, cynomolgus monkey ADAM9 (cynoADAM9) on …; assay: FACS, EC50 on 300-19 cynoADAM9 cells over EC50 on 300-19 huADAM9 cells
Description: as §1

[3] = target: T2, human ADAM9 (huADAM9) on cells (human, UniProt Q13443 206-819); assay: cell-based or functional assay
T2 sequence: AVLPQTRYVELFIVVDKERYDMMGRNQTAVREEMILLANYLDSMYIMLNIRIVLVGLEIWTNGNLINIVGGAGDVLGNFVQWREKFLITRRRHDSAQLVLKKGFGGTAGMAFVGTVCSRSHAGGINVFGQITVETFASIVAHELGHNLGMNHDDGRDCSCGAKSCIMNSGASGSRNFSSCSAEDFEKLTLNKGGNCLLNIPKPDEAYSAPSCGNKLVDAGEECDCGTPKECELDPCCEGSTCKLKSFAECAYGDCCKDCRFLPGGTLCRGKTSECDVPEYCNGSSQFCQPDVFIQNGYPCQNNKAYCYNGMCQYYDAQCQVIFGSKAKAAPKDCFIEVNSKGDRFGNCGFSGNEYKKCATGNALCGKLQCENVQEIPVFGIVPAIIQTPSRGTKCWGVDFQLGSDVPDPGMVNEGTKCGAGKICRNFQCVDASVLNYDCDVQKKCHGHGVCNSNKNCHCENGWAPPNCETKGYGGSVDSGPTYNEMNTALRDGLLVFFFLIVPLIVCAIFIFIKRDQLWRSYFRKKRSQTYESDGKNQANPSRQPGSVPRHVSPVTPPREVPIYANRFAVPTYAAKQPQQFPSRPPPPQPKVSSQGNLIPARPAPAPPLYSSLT

[4] = target: T2, human ADAM9 (huADAM9) on cells; assay: FACS, 300-19 cells expressing human ADAM9
Description: as §1

[5] = target: T3, His-tagged soluble human ADAM9 (shADAM9-His) (human, UniProt Q13443 206-697); assay: SPR (BIACORE), antibody captured, huADAM9-His in flow
T3 construct: Contains an extracellular portion of human ADAM9; also called huADAM9-His; His peptide-tagged soluble huADAM9
T3 sequence: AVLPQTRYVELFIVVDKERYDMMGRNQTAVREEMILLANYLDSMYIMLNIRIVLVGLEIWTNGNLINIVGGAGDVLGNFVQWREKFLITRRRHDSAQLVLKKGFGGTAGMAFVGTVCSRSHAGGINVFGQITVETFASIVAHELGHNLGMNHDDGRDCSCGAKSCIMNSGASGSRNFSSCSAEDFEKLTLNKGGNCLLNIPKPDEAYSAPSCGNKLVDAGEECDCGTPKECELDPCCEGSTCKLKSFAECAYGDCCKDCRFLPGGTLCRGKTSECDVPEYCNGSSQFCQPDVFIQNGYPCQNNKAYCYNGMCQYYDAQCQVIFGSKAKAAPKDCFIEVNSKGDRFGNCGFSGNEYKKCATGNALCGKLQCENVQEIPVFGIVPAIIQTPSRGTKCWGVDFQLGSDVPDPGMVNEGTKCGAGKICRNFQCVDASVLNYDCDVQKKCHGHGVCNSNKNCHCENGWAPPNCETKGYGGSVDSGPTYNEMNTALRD
Description: The kinetics of binding were determined via BIACORE® analysis binding (normalized 1:1 Langmuir binding model).

EC50 [1]: 22.3 nM
cyno/human (ratio of EC50) [2]: 14
Fold-specificity (IC50 control ADC/IC50 anti-ADAM9 ADC), A498 [3]: > 1000 fold
Fold-specificity (IC50 control ADC/IC50 anti-ADAM9 ADC), DLD-1 [3]: > 1000 fold
Fold-specificity (IC50 control ADC/IC50 anti-ADAM9 ADC), DU145 [3]: > 1000 fold
Fold-specificity (IC50 control ADC/IC50 anti-ADAM9 ADC), HPAF2 [3]: > 1000 fold
Fold-specificity (IC50 control ADC/IC50 anti-ADAM9 ADC), HS578T [3]: > 1000 fold
Fold-specificity (IC50 control ADC/IC50 anti-ADAM9 ADC), IGROV1 [3]: > 1000 fold
Fold-specificity (IC50 control ADC/IC50 anti-ADAM9 ADC), KATO III [3]: > 1000 fold
Fold-specificity (IC50 control ADC/IC50 anti-ADAM9 ADC), NCI-H1703 [3]: > 1000 fold
EC50 [4]: 1.55 nM
B1: hMAB-A(2.2)-DGN549 (antibody, human IgG1, kappa, V domains shown)
VH: EVQLVESGGGLVKPGGSLRLSCAASGFTFSSYWMHWVRQAPGKGLEWVGEIIPIFGHTNYNEKFKSRFTISLDNSKNTLYLQMGSLRAEDTAVYYCARGGYYYYGSRDYFDYWGQGTTVTVSS
VL: DIVMTQSPDSLAVSLGERATISCKASQSVDYSGDSYMNWYQQKPGQPPKLLIYAASDLESGIPARFSGSGSGTDFTLTISSLEPEDFATYYCQQSHEDPFTFGQGTKLEIKR
modifications: lysine-linked DGN549, sites not given; DGN549-L (compound D2) linked to lysine residues of the antibody, sites not given; average 2.7 mol DGN549/mol antibody
In Vitro Cytotoxicity (IC50 nM), A498 [3]: 0.001 nM
In Vitro Cytotoxicity (IC50 nM), DLD-1 [3]: 0.01 nM
In Vitro Cytotoxicity (IC50 nM), DU145 [3]: 0.002 nM
In Vitro Cytotoxicity (IC50 nM), HPAF2 [3]: 0.043 nM
In Vitro Cytotoxicity (IC50 nM), HS578T [3]: 0.009 nM
In Vitro Cytotoxicity (IC50 nM), IGROV1 [3]: 0.001 nM
In Vitro Cytotoxicity (IC50 nM), KATO III [3]: 0.031 nM
In Vitro Cytotoxicity (IC50 nM), NCI-H1703 [3]: 0.002 nM

EC50 [1]: 5.6 nM
cyno/human (ratio of EC50) [2]: 3
EC50 [4]: 1.99 nM
B4: hMAB-A(2C.2)-DGN549 (antibody, human IgG1, kappa, V domains shown)
VH: EVQLVESGGGLVKPGGSLRLSCAASGFTFSSYWMHWVRQAPGKGLEWVGEIIPIFGHTNYNEKFKSRFTISLDNSKNTLYLQMGSLRAEDTAVYYCARGGYYYYPRFGWLDYWGQGTTVTVSS
VL: DIVMTQSPDSLAVSLGERATISCKASQSVDYSGDSYMNWYQQKPGQPPKLLIYAASDLESGIPARFSGSGSGTDFTLTISSLEPEDFATYYCQQSHEDPFTFGQGTKLEIKR
modifications: lysine-linked DGN549, sites not given; DGN549-L (compound D2) linked to lysine residues of the antibody, sites not given; average 2.8 mol DGN549/mol antibody

Second part, the binder before the results:

B2: hMAB-A (2D.2) (antibody, V domains shown)
VH: EVQLVESGGGLVKPGGSLRLSCAASGFTFSSYWMHWVRQAPGKGLEWVGEIIPIFGHTNYNEKFKSRFTISLDNSKNTLYLQMGSLRAEDTAVYYCARGGYYYYTGKGVLDYWGQGTTVTVSS
VL: DIVMTQSPDSLAVSLGERATISCKASQSVDYSGDSYMNWYQQKPGQPPKLLIYAASDLESGIPARFSGSGSGTDFTLTISSLEPEDFATYYCQQSHEDPFTFGQGTKLEIK
notes: also called MAB-A VH(2D); MAB-A VH(2D.2)
Kd [5]: 0.8 nM
koff [5]: 0.00058 s⁻¹
kon [5]: 690000 M⁻¹ s⁻¹

B3: hMAB-A (2B.2) (antibody, V domains shown)
VH: EVQLVESGGGLVKPGGSLRLSCAASGFTFSSYWMHWVRQAPGKGLEWVGEIIPIFGHTNYNEKFKSRFTISLDNSKNTLYLQMGSLRAEDTAVYYCARGGYYYYIGKGVLDYWGQGTTVTVSS
VL: DIVMTQSPDSLAVSLGERATISCKASQSVDYSGDSYMNWYQQKPGQPPKLLIYAASDLESGIPARFSGSGSGTDFTLTISSLEPEDFATYYCQQSHEDPFTFGQGTKLEIK
notes: also called MAB-A VH(2B); MAB-A VH(2B.2)
Kd [5]: 0.6 nM
koff [5]: 0.00039 s⁻¹
kon [5]: 610000 M⁻¹ s⁻¹
